What was measured:
[1] = test system: β2AR–Gs peptide FRET sensor; experiment: ∆FRET assay, β2AR–Gs peptide SPASM FRET sensor
[2] = biological target: β2AR ICL3 FRET sensor, β2AR(L258Azi/Y350Azi/∆351–413) (Homo sapiens, UniProt P07550, L258F/Y350F); experiment: Time-correlated single photon counting FRET assay, β2AR ICL3 FRET sensor (AZDye488/AZDye546); conditions: in combination with isoproterenol
Method: Cell membranes were prepared following the procedure in ‘Crude cell membrane extracts’ through the first ultracentrifugation step (135,000g, 25 min, 4 °C). […] Solution was homogenized, first by passing through a 1 ml micropipette 10 times, then passing through a 20-gauge needle 10 times. To initiate the reaction, sodium ascorbate (50 mM) was added to the mixture and mixed by pipetting (2 ml final volume). Reactions were incubated with mild shaking (500 rpm) for 30 min at 25 °C.
For conditions without drug, peptide or nanobody, an equivalent volume of assay buffer was added. Reactions were equilibrated for 5 min prior to reading. […] Time-resolved fluorescence decay data were fit to the equation: Decay=α1e^−t/τ^1+α2e^−t/τ^2+α3e^−t/τ^3
Amplitude-weighted average lifetimes (τavg) were calculated from the three-exponential decay equation: τavg=(α1τ1+α2τ2+α3τ3)/(α1+α2+α3)
Each condition was performed in technical duplicate or triplicate, depending on sensor yield.

[3] = test system: PTH1R–Gs peptide; experiment: PTH1R-luciferase complementation reporter assay, Gs peptide; type: biochemical, human; conditions: PTH1R construct named by the receptor or protein whose sequence replaces ICL3 (WT = wild-type); X axis of Figure 5G
[4] = test system: PTH1R–Gq peptide; experiment: PTH1R-luciferase complementation reporter assay, Gq peptide; type: biochemical, human; conditions: PTH1R construct named by the receptor or protein whose sequence replaces ICL3 (WT = wild-type); Y axis of Figure 5G
Method: For PTH1R luciferase complementation reporter assays, cells were seeded the day prior to transfection at 25-30% confluence on 12-well plates. For each transfection, 0.5 μg DNA, 1.5 μl X-tremeGENE HP, and 100 μl Opti-MEM were combined, incubated for 15-20 min, and added to seeded wells. For each mutant, PTH1R-Gs peptide, PTH1R-Gq peptide and PTH1R-(no peptide) constructs were transfected in parallel. Spep and Qpep constructs were transfected 24 h prior to collection, and no-peptide constructs were transfected 18 h before collection. […] Media in each well was used to gently shear and resuspend the cells by pipetting. The cell mixture was centrifuged (3 min, 300g) and the media was aspirated. Cell pellet was resuspended in 1 ml PBS and centrifuged again as above. […] Cellular debris was removed by centrifugation (1,000g for 1 min). To collect additional vesicles, debris was resuspended in 0.3 ml PBS, briefly vortexed, and centrifuged again (1,000g for 1 min). The ~0.9 ml of combined decanted supernatant was centrifuged one additional time (1,000g for 2 min) to better remove cellular debris. […] Vesicle samples were collected in a 96-well clear bottom plate and assayed for TagRFP fluorescence (Tecan Spark, excitation 521 nm, emission 585 nm, gain 150). For each set of constructs for a given […] ([…] control), samples were diluted to the lowest TagRFP counts. […] The plate was tapped 2-3 times to mix, and the kinetic read was resumed. Moving averages were computed for each kinetic trace (3-point averages for 5 min equilibration, 8-point moving averages post-drug treatment). Each kinetic trace was normalized to the last point of the pre-drug equilibration. The maximum luminescence value that appeared stable over time was used for further analysis. Specific Spep and Qpep signals were calculated by subtracting the control value from the Spep value and the Qpep value for a given experiment.

B1: Nb6B9: nanobody that binds the receptor’s cytosolic cavity in the active state (antibody, V domains shown)
VH: QVQLQESGGGLVQAGGSLRLSCAASGSIFALNIMGWYRQAPGKQRELVAAIHSGGTTNYANSVKGRFTISRDNAANTVYLQMNSLKPEDTAVYYCNVKDFGAIIYDYDYWGQGTQVTVSS
[1]; wild-type β2AR–Gs peptide FRET sensor
  effect on agonist-induced FRET of β2AR–G peptide sensor: significantly quenched FRET
[1]; β2AR(∆ICL3), Gs and Gq peptide sensors
  effect on agonist-induced FRET of β2AR–G peptide sensor: quenched the interactions of both the Gs and Gq peptides with the receptor
[2]
  effect on FRET efficiency of the ICL3 FRET sensor treated with isoproterenol: quenched

B2: CCK2 (protein, UniProt P32239 1-447, looked up)
Gastrin/cholecystokinin type …: MELLKLNRSVQGTGPGPGASLCRPGAPLLNSSSVGNLSCEPPRIRGAGTRELELAIRITLYAVIFLMSVGGNMLIIVVLGLSRRLRTVTNAFLLSLAVSDLLLAVACMPFTLLPNLMGTFIFGTVICKAVSYLMGVSVSVSTLSLVAIALERYSAICRPLQARVWQTRSHAARVIVATWLLSGLLMVPYPVYTVVQPVGPRVLQCVHRWPSARVRQTWSVLLLLLLFFIPGVVMAVAYGLISRELYLGLRFDGDSDSDSQSRVRNQGGLPGAVHQNGRCRPETGAVGEDSDGCYVQLPRSRPALELTALTAPGPGSGSRPTQAKLLAKKRVVRMLLVIVVLFFLCWLPVYSANTWRAFDGPGAHRALSGAPISFIHLLSYASACVNPLVYCFMHRRFRQACLETCARCCPRPPRARPRALPDEDPPTPSIASLSRLSYTTISTLGPG
[3]
  Specific Peptide Signal, Gs (Average): 0.42
[4]
  Specific Peptide Signal, Gq (Average): 0.12

B3: 5HT2C (protein, UniProt P28335 33-458, looked up)
5-hydroxytryptamine receptor …: IVTDIFNTSDGGRFKFPDGVQNWPALSIVIIIIMTIGGNILVIMAVSMEKKLHNATNYFLMSLAIADMLVGLLVMPLSLLAILYDYVWPLPRYLCPVWISLDVLFSTASIMHLCAISLDRYVAIRNPIEHSRFNSRTKAIMKIAIVWAISIGVSVPIPVIGLRDEEKVFVNNTTCVLNDPNFVLIGSFVAFFIPLTIMVITYCLTIYVLRRQALMLLHGHTEEPPGLSLDFLKCCKRNTAEEENSANPNQDQNARRRKKKERRPRGTMQAINNERKASKVLGIVFFVFLIMWCPFFITNILSVLCEKSCNQKLMEKLLNVFVWIGYVCSGINPLVYTLFNKIYRRAFSNYLRCNYKVEKKPPVRQIPRVAATALSGRELNVNIYRHTNEPVIEKASDNEPGIEMQVENLELPVNPSSVVSERISSV
[3]
  Specific Peptide Signal, Gs (Average): 0.48
[4]
  Specific Peptide Signal, Gq (Average): -0.00493

B4: CNR1 (protein, UniProt P21554 1-472, looked up)
Cannabinoid receptor 1: MKSILDGLADTTFRTITTDLLYVGSNDIQYEDIKGDMASKLGYFPQKFPLTSFRGSPFQEKMTAGDNPQLVPADQVNITEFYNKSLSSFKENEENIQCGENFMDIECFMVLNPSQQLAIAVLSLTLGTFTVLENLLVLCVILHSRSLRCRPSYHFIGSLAVADLLGSVIFVYSFIDFHVFHRKDSRNVFLFKLGGVTASFTASVGSLFLTAIDRYISIHRPLAYKRIVTRPKAVVAFCLMWTIAIVIAVLPLLGWNCEKLQSVCSDIFPHIDETYLMFWIGVTSVLLLFIVYAYMYILWKAHSHAVRMIQRGTQKSIIIHTSEDGKVQVTRPDQARMDIRLAKTLVLILVVLIICWGPLLAIMVYDVFGKMNKLIKTVFAFCSMLCLLNSTVNPIIYALRSKDLRHAFRSMFPSCEGTAQPLDNSMGDSDCLHKHANNAASVHRAAESCIKSTVKIAKVTMSVSTDTSAEAL
[3]
  Specific Peptide Signal, Gs (Average): 0.53
[4]
  Specific Peptide Signal, Gq (Average): 0.10

B5: ADA1A (protein, UniProt P35348 1-466, looked up)
Alpha-1A adrenergic receptor: MVFLSGNASDSSNCTQPPAPVNISKAILLGVILGGLILFGVLGNILVILSVACHRHLHSVTHYYIVNLAVADLLLTSTVLPFSAIFEVLGYWAFGRVFCNIWAAVDVLCCTASIMGLCIISIDRYIGVSYPLRYPTIVTQRRGLMALLCVWALSLVISIGPLFGWRQPAPEDETICQINEEPGYVLFSALGSFYLPLAIILVMYCRVYVVAKRESRGLKSGLKTDKSDSEQVTLRIHRKNAPAGGSGMASAKTKTHFSVRLLKFSREKKAAKTLGIVVGCFVLCWLPFFLVMPIGSFFPDFKPSETVFKIVFWLGYLNSCINPIIYPCSSQEFKKAFQNVLRIQCLCRKQSSKHALGYTLHPPSQAVEGQHKDMVRIPVGSRETFYRISKTDGVCEWKFFSSMPRGSARITVSKDQSSCTTARVRSKSFLQVCCCVGPSTPSLDKNHQVPTIKVHTISLSENGEEV
[3]
  Specific Peptide Signal, Gs (Average): 0.59
[4]
  Specific Peptide Signal, Gq (Average): 0.14

B6: DRD3 (protein, UniProt P35462 1-400, looked up)
D(3) dopamine receptor: MASLSQLSGHLNYTCGAENSTGASQARPHAYYALSYCALILAIVFGNGLVCMAVLKERALQTTTNYLVVSLAVADLLVATLVMPWVVYLEVTGGVWNFSRICCDVFVTLDVMMCTASILNLCAISIDRYTAVVMPVHYQHGTGQSSCRRVALMITAVWVLAFAVSCPLLFGFNTTGDPTVCSISNPDFVIYSSVVSFYLPFGVTVLVYARIYVVLKQRRRKRILTRQNSQCNSVRPGFPQQTLSPDPAHLELKRYYSICQDTALGGPGFQERGGELKREEKTRNSLSPTIAPKLSLEVRKLSNGRLSTSLKLGPLQPRGVPLREKKATQMVAIVLGAFIVCWLPFFLTHVLNTHCQTCHVSPELYSATTWLGYVNSALNPVIYTTFNIEFRKAFLKILSC
[3]
  Specific Peptide Signal, Gs (Average): 0.72
[4]
  Specific Peptide Signal, Gq (Average): 0.08

Source: paper PMC10033409, “Autoregulation of GPCR signalling through the third intracellular loop” (Nature, 2023)
